As a reminder, the Kd is the free concentration of one partner at which half of the binding sites on the other are occupied at equilibrium, for simple one-to-one binding. Low values mean a tighter complex, high ones a looser complex.

Where only a bound is given, the exact number is not on record here.

For assay [1], the target named is IL-3R α-chain co-expressed with Y421A βc on cells (human) (UniProt P26951). As to the kind of experiment: cell-based or functional assay.
The target of assay [2] is IL-3R α-chain co-expressed with N422A βc on COS cells (human) (UniProt P26951). As to the kind of experiment: Scatchard (LIGAND) of 125I-IL-3 on COS cells with α-chains and N422A βc; high affinity site 1.
The target in assay [3] is IL-3R α-chain co-expressed with R418A βc on COS cells (human) (UniProt P26951). Kind of assay: Scatchard (LIGAND) of 125I-IL-3 on COS cells with α-chains and R418A βc; high affinity site 1.
In assay [4] the target is IL-3R α-chain co-expressed with mutant ^418AAAYA^422 βc on COS cells (human) (UniProt P26951). Kind of assay: Scatchard (LIGAND) of 125I-IL-3 on COS cells with α-chains and ^418AAAYA^422 βc; high affinity site 1.
Assay [5] deals with IL-3R α-chain co-expressed with G420A βc on COS cells (human) (UniProt P26951). Kind of assay: Scatchard (LIGAND) of 125I-IL-3 on COS cells with α-chains and G420A βc; high affinity site 1.
Assay [6] addresses IL-3R α-chain co-expressed with R418A βc on COS cells (human) (UniProt P26951). As to the kind of experiment: radioligand saturation binding on transfected COS cells.
Assay [7] concerns the target IL-3R α-chain co-expressed with mutant ^418AAAYA^422 βc on COS cells (human) (UniProt P26951). The assay is described as above.
For assay [8], the target named is IL-3R α-chain co-expressed with T419A βc on COS cells (human) (UniProt P26951). As to the kind of experiment: Scatchard (LIGAND) of 125I-IL-3 on COS cells with α-chains and T419A βc; high affinity site 1.
For assay [9], the target named is IL-5R α-chain co-expressed with Y421A βc on COS cells (human) (UniProt Q01344). Kind of assay: Scatchard (LIGAND) of radio-iodinated IL-5 on COS cells with IL-5R α-chain and Y421A βc; single receptor class.
Assay [10] has as its target IL-5R α-chain co-expressed with mutant ^418AAAYA^422 βc on COS cells (human) (UniProt Q01344). Kind of assay: Scatchard (LIGAND) of radio-iodinated IL-5 on COS cells with IL-5R α-chain and ^418AAAYA^422 βc; single receptor class.
Assay [11] has as its target T1, IL-3R α-chain co-expressed with wild type βc on cells (human, UniProt P26951 19-378; P32927 17-897).
T1 construct: whole, on cells; The COS cells carried GM-CSFR and IL-3R α-chains together with βc; also called Wt βc
Kind of assay: Scatchard (LIGAND) of 125I-IL-3 on COS cells with α-chains and wild type βc; high affinity site 1, low affinity site fixed at 50 nM.

Assay [12] concerns the target T2, IL-3R α-chain expressed on cells without βc (UniProt P26951 19-378, limits assumed).
T2 construct: whole, on cells; also called α-chain only; hIL-3Rα
As to the kind of experiment: radioligand saturation binding, COS cells with α-chain only; range of affinities observed.

Chain of IL-3R α-chain co-expressed with R418A βc on COS cells (human) (P26951 19-378, chain 1 of 2): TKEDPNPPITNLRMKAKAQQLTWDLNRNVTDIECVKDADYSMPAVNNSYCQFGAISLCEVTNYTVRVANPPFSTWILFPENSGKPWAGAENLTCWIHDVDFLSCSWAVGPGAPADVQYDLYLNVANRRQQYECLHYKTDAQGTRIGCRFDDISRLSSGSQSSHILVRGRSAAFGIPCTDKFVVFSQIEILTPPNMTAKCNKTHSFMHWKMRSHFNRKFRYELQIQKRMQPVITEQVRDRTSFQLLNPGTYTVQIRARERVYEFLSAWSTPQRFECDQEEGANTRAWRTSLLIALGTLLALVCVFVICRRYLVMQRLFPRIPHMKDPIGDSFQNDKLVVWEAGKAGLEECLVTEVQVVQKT
Chain of IL-3R α-chain co-expressed with R418A βc on COS cells (human) (P32927 17-897 R418A, chain 2 of 2, further chain): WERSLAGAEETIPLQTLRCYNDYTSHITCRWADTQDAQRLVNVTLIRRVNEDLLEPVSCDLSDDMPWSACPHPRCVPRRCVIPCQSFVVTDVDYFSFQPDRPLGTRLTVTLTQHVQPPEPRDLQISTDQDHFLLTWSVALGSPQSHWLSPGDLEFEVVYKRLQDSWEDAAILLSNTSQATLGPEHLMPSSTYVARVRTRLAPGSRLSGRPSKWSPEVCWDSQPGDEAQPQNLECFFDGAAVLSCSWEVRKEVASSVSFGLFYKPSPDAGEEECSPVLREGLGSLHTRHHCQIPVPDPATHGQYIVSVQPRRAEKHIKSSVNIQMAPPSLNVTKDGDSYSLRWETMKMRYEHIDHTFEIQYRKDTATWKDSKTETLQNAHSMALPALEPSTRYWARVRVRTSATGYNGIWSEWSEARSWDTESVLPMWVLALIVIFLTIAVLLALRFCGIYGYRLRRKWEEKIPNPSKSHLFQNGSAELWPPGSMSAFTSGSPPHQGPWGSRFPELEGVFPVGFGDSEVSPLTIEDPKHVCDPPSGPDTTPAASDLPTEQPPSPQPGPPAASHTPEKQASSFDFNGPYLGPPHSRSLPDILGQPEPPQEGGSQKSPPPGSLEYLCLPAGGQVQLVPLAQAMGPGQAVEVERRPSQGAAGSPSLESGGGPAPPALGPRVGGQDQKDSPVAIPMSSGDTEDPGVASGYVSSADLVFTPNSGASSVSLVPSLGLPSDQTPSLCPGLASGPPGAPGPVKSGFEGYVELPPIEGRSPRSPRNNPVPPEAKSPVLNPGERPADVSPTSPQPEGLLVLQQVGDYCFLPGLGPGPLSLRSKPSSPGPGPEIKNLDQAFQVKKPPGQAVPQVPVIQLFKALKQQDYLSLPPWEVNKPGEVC
Chain of IL-3R α-chain co-expressed with mutant ^418AAAYA^422 βc on COS cells (human) (P26951 19-378, stated change not applied, chain 1 of 2): as the sequence (P26951 19-378, chain 1 of 2) above
Chain of IL-3R α-chain co-expressed with mutant ^418AAAYA^422 βc on COS cells (human) (P32927 other isoform, or with tags, fused parts or gaps mutant, chain 2 of 2, further chain): as the sequence (P32927 17-897 R418A, chain 2 of 2, further chain) above, with T403A, G404A, N406A counted along it
T2 sequence (P26951 19-378 limits assumed): as the sequence (P26951 19-378, chain 1 of 2) above
Chain of IL-3R α-chain co-expressed with T419A βc on COS cells (human) (P26951 19-378, chain 1 of 2): as above
Chain of IL-3R α-chain co-expressed with T419A βc on COS cells (human) (P32927 17-897 T419A, chain 2 of 2, further chain): as the sequence (P32927 17-897 R418A, chain 2 of 2, further chain) above, with A402R, T403A counted along it
T1 sequence (P26951 19-378, chain 1 of 2): as the sequence (P26951 19-378, chain 1 of 2) above
T1 sequence (P32927 17-897, chain 2 of 2): as the sequence (P32927 17-897 R418A, chain 2 of 2, further chain) above, with A402R counted along it
Chain of IL-3R α-chain co-expressed with N422A βc on COS cells (human) (P26951 19-378, chain 1 of 2): as the sequence (P26951 19-378, chain 1 of 2) above
Chain of IL-3R α-chain co-expressed with N422A βc on COS cells (human) (P32927 17-897 N422A, chain 2 of 2, further chain): as the sequence (P32927 17-897 R418A, chain 2 of 2, further chain) above, with A402R, N406A counted along it
Chain of IL-3R α-chain co-expressed with G420A βc on COS cells (human) (P26951 19-378, chain 1 of 2): as the sequence (P26951 19-378, chain 1 of 2) above
Chain of IL-3R α-chain co-expressed with G420A βc on COS cells (human) (P32927 17-897 G420A, chain 2 of 2, further chain): as the sequence (P32927 17-897 R418A, chain 2 of 2, further chain) above, with A402R, G404A counted along it
Chain of IL-3R α-chain co-expressed with Y421A βc on cells (human) (P26951 19-378, chain 1 of 2): as the sequence (P26951 19-378, chain 1 of 2) above
Chain of IL-3R α-chain co-expressed with Y421A βc on cells (human) (P32927 17-897 Y421A, chain 2 of 2, further chain): as the sequence (P32927 17-897 R418A, chain 2 of 2, further chain) above, with A402R, Y405A counted along it
Chain of IL-5R α-chain co-expressed with mutant ^418AAAYA^422 βc on COS cells (human) (Q01344 21-420, change not shown, chain 1 of 2): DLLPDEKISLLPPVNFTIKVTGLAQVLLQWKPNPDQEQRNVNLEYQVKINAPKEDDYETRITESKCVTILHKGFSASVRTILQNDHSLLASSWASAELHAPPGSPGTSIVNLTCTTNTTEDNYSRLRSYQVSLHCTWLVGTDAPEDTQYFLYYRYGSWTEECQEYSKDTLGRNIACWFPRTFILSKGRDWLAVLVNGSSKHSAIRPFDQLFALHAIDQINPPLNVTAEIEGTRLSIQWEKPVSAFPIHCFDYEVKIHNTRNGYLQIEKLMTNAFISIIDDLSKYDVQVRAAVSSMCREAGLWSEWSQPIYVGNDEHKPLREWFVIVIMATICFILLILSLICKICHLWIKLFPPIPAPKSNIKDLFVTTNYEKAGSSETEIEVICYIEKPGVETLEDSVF
Chain of IL-5R α-chain co-expressed with mutant ^418AAAYA^422 βc on COS cells (human) (P32927 other isoform, or with tags, fused parts or gaps mutant, chain 2 of 2, further chain): as the sequence (P32927 17-897 R418A, chain 2 of 2, further chain) above, with T403A, G404A, N406A counted along it
Chain of IL-5R α-chain co-expressed with Y421A βc on COS cells (human) (Q01344 21-420, chain 1 of 2): as the sequence (Q01344 21-420, change not shown, chain 1 of 2) above
Chain of IL-5R α-chain co-expressed with Y421A βc on COS cells (human) (P32927 17-897 Y421A, chain 2 of 2, further chain): as the sequence (P32927 17-897 R418A, chain 2 of 2, further chain) above, with A402R, Y405A counted along it

Consider “Human interleukin (IL)-3 (from UniProt P08700 20-152) (ligand)”, for which, in [1], the STAT5-L activation (EMSA with STAT5 probe, phosphorimager) in transfected Jurkat cells; concentration for half maximal activation is > 3 µM. The Kd came out at 0.08 nM in [2]; 0.511 nM in [3]; 0.113 nM in assay [4]; 0.196 nM in [5]; 0.151 nM in assay [8]. In [6], this molecule displayed a fold reduction of high affinity binding against wild type βc of 2 to 3 fold. In assay [7], the fold reduction of affinity against wild type high affinity binding came out at 3 fold.
Take “Human interleukin IL-5 (from UniProt P05113 20-134) (ligand)”: the values for the Kd in [9] and in [10] were 1.86 nM and 0.71 nM, respectively.

B1: Human interleukin (IL)-3 (ligand, UniProt P08700 20-152, looked up)
chain: APMTQTTPLKTSWVNCSNMIDEIITHLKQPPLPLLDFNNLNGEDQDILMENNLRRPNLEAFNRAVKSLQNASAIESILKNLLPCLPLATAAPTRHPIHIKDGDWNEFRRKLTFYLKTLENAQAQQTTLSLAIF
modifications: radio-iodinated (125I) in the saturation binding studies
notes: unlabelled in the STAT5-L assays on Jurkat cells; also called ^125I-IL-3
Consider B1, for which the results for the Kd in assay [11] and in assay [12] were 0.141 nM and 20 to 100 nM, respectively.

Values taken from USRE39433 (MEDVET SCIENCE, dated 2006).
